Reference: PMC4761300 (Molecular cell, 2016)

Target: the molecule itself
Assay: SDS-PAGE of bicelle-reconstituted peptide

B1: mouse Fas-TM (transmembrane domain peptide of mouse Fas) (peptide)
chain: RNRLWLLTILVLLIPLVFIYRKYRKRKS
stoichiometry N: 3

B2: human Fas-TM (transmembrane domain peptide of human Fas, C178S) (peptide)
chain: RSNLGWLSLLLLPIPLIVWVKRKEVQKT
stoichiometry N: 3
